Each block holds one binder with its values, some of them ahead of it.
Assays:
Test in all cases: pull-down
GST-AP-1 core, wild type [1] = target: T1, GST-AP-1 core, wild type (murine | human, UniProt P22892 1-595; Q10567 1-584; Q96PC3 1-154; P35585 1-423)
GST-AP-1 core, wild type [2] = target: T1, GST-AP-1 core, wild type; remark: listed apart in the source
GST-AP-1 core, wild type [3] = target: T1, GST-AP-1 core, wild type; remark: listed apart in the source

T1 sequence (P22892 1-595, chain 1 of 4): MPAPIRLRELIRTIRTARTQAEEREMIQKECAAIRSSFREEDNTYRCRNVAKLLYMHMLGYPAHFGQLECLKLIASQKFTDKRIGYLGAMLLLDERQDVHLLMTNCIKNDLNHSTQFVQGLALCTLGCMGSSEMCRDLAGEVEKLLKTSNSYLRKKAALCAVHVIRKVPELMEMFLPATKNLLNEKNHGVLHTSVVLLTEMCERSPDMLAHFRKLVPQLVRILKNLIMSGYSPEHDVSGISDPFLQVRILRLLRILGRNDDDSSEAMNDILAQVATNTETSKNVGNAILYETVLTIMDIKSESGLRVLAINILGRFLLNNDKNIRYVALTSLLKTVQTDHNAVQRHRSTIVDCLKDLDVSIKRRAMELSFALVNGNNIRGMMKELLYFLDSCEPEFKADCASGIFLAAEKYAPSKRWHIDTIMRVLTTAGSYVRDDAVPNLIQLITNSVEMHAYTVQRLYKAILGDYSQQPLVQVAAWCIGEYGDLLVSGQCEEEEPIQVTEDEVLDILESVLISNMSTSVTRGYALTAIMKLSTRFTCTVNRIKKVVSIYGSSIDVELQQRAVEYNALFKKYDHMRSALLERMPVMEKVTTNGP
T1 sequence (Q10567 1-584, chain 2 of 4): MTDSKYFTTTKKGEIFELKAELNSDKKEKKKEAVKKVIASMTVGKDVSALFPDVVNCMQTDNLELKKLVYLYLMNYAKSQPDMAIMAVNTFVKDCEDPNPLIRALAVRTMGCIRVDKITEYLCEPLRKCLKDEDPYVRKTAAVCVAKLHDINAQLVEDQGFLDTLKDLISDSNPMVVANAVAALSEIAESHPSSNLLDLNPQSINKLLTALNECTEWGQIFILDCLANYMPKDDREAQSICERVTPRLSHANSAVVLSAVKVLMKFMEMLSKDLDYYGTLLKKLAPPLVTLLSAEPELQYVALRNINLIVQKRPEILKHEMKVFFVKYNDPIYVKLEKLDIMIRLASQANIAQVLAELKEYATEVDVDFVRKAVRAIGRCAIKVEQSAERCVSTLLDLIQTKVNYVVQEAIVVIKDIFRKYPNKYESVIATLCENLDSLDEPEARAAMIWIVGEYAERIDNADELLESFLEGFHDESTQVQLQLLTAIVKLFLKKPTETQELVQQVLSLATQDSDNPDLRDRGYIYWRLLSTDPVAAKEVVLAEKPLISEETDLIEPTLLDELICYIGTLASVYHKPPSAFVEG
T1 sequence (Q96PC3 whole entry, chain 3 of 4): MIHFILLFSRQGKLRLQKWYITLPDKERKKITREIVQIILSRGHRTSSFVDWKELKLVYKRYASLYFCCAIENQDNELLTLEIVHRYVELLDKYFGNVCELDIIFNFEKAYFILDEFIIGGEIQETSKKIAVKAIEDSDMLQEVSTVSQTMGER
T1 sequence (P35585 whole entry, chain 4 of 4): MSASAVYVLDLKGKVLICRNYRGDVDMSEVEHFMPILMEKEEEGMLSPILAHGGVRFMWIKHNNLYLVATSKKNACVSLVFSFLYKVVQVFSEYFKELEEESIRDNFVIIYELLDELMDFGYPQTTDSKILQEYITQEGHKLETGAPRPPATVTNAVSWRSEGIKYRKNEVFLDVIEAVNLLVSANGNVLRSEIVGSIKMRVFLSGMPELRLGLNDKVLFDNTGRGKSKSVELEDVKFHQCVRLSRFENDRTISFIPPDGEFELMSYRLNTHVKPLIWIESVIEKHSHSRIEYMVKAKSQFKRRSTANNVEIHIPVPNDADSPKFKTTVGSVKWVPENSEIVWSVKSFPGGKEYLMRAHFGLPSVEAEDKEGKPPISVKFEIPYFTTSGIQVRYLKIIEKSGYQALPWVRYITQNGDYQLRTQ

Kd (GST-AP-1 core, wild type [1]): 20 ± 0.6 µM
fold increase of Arf1 bound with 20 μM VAMP4 peptide, against no peptide (GST-AP-1 core, wild type [2]): 4 fold
B1: His6-Arf1^Δ1-16 Q71L, GTP-loaded (domain or fragment)
chain: not shown

binding result (GST-AP-1 core, wild type [3]): binds
B2: His-Arf1^Δ16-Q71L A136P/A137H (domain or fragment)
chain: not shown

binding result (GST-AP-1 core, wild type [3]): binds
B3: His-Arf1^Δ16-Q71L W172D (domain or fragment)
chain: not shown
